Target: the molecule itself
Assay: co-sedimentation; pelleting assay; each protein at 1 µM in polymerization buffer (10 mM Tris-HCl pH 7.5, 25 mM KCl, 2 mM MgCl2, 1 mM DTT) with 1 mM ATP, 25°C for 10 min, 100,000 x g for 30 min at 4°C; SDS-PAGE of pellet and supernatant

B1: MamK (untagged recombinant) (natural protein, Magnetospirillum magneticum AMB-1, UniProt Q2W8Q6 1-347, looked up)
chain: MSEGEGQAKNRLFLGIDLGTSHTAVMSSRGKKFLLKSVVGYPKDVIGLKLLGRPYVVGDEAFEMRSYLDIRYPLQDGVLSEISDRDIEVARHLLTHVVKSAEPGPNDEICAVIGVPARASAANKALLLKMAQEVVHTALVVSEPFMVGYGLDKLINTIIVDIGAGTTDICALKGTVPGPEDQVTLTKAGNYVDERLQNAILERHPELQMNVNVACAVKEQFSFVGTPTEVASFEFRAAGKPVRADVTEPVKIACEALMPDIIESIETLLRSFQPEYQATVLQNIVFAGGGSRIRGLAAYVKEKLRPFGDANVTCVKDPTFDGCRGALRLAEELPPQYWRQLGDVSGS
notes: MamK, bacterial actin-like protein of Magnetospirillum magneticum AMB-1; untagged; printed as 37.6 kDa; monomeric fractions were pooled; it forms filaments with ATP in polymerization buffer; also called purified MamK; MamK filaments; source: E. coli BL21, purified (ammonium sulfate precipitation, anion exchange, gel filtration)
binding result: binds
